Test results: the DeepSol protein solubility set

Test: soluble on expression in E. coli; label from the status in PepcDB or PDB records

Sequence | soluble on expression in E. coli
EHMQHLAMKGARFDIVLLPSSPTAHGLEQVQFQVAANKGNPPRPLNKVASGGELARISLALQVVASQYTQVPTLIFDEVDTGIGGGVAEMVGKALRALGRKHQVLAVTHLPQVASCGENHWRVRKHSEGEQTVSEISILDEIQRIEEVARMLGGEVITDTTRQHAAELLQLASKNSLF | not soluble
MAHHHHHHMGTLEAQTQGPGSMMETDATAEAAAVAYEDIITRFGAAPITDDLLKRFETVTGTKAHPMLRRGLFYAHRDFEEFLSYYEKGHPIYIYTGRGPSSGALHLGHLLPFIFTKYLQDAFKCYVVIQITDDEKFLRNRSLSYAEVDSYTRENIKDIIACGFDPDKTFIFINSQYLSLKNRYRFSCLVDRMLPISQLRASFGFSNDANVGYAAFPPKQMLPVYSTYFDGLPFTRVPLPVGTGNEDAADAVSTKKASKKTPKKDAVLSPVHVVEELFPDSKRYQKAMCLIASGIEQDPYFRLARDLAPRMGHPKNAYLLGKFLPGLQGSGTKMSASDPNSAIYLTDTPAQIKNKINRYAFSGGRDTEEEHRAFGADLSVDVSVRYLEVFMKDDAELEKLKADYKTGKLLTGEVKATLIGILQGLIKEHAERRDKVDTTMIESFTVKKELQ | soluble
MGSDKIHHHHHHMLMNIGKVDNIKIYTLAEDYAGYNSPFWSQHGLSFLIEVESNGIKKRILFDTATYAEPILFNMKLLNINPKSIDMIILSHNHFDHTGGLFGIMKEINKEIPIFAHPNIFKVSFATEPEFMLAGTLNKTLKEDIEKLGGRWVLSRDPIRLMPGIFTLGEIEDEEKINFEKKPTIGLYKLENGRVVLDNVEDEIGLAIVTEKGLIIVSGCSHPGIVSMVKKSIKISGINKVYAVIGGFHLIDADNERIVSTIKALKKLGVKKICTGHCTGFKAENMFMEEFKEDFERLHAGKIIKF | not soluble
MKQADELRFNEDGLIPAIVQDAASKEVLTLAYMNKESYEKTLETKETWFYSRSRQALWHKGETSGNTQAVKGIRYDCDQDALLVLVEPSGPACHTGSYSCFTKEQTEEQAADRFGIMNELERVIAERQAEMPEGAYTTYLFREGVDKILKKVGEEASEVIIAAKNRDHEELKWEAADLLYHLLVLLREQSLPLDDVLDVLKKRHSEIEELEHHHHHH | not soluble
MFDIGFGELLLVMVLGLIVLGPERLPVAVRTVASWIRTLRSLASTVQNELSQELKLQEFQESLKKVEKASLQNLSPELKASMDELKDAAEAMKRGYTETPSPQKSDDPKKSGDHSATVEPQSNIPLNDPEAAYDGVIEAETAVRPADSQQKPENAAVAENHNDGRHATSDEAVGNNNVKPEQSQPSAASARQPSDSRLEHHHHHH | not soluble
MSLRTILVTGASGFVGGALCRQLATLGSFAIRAASRDLGGASVAGIQAVTVADLSATTDWARALSGVDLVVHAAARVHVMKETASDSLAEFRRVNVDGTLNLARQAAAAGVRRFIFISSIKVNGESSQPGQPLRADDSPAPQDAYGVSKHEAEQGLRQLAAATGMEVVVIRPVLVYGPGVKANFHSMMRWLQRGVPLPFGAVCNRRSLVSLANLVDLVVTCIDHPRAANQTFLASDGDDVSLTQLLRALGLALGRPARLLPVPAGLLRGAVLLIGRRDLAQRLFGTLQVDIEKNRQLLGWYPPCTLEQGLNMTARSFLGARREGHHHHHH | soluble
MPVGPPVPPKPSTPIMNGERLGEYGVGGHIGNGDVVPERRGILPASLREKINQKKELEGRATPSIEPDLVGRDRYDKASRCFSYVPAKSMQEAFERPRRTSFSRAIEKRENSVENVSQEEVARTEIPQSYQQNDISTPAKWDEQVEDAKQSALLEELARAPSAMQHNYWGNGEVDNVQVVDQAQRAVITPTSTLQRRPKPPARSGSYRTLNDDAYCSDMDELCDPEYYLNYNSNTAPLPPPRRQEQHAGTRSVQLPRKKMNFDAVTDPLDDVLESTKRLGSAYSVGDVRGGQQQQQEQHNASNDFNFSNTLNNTPTDYRQHYRNRNCQSVTTPRNHHFSTPSREQEADAADTWLSGKLKKVRSKRDIDPDIVRRRTQEKMLLEELKDSAANNDENQHNLPNGHARGAGLQNIDPLAEFRREEERLRNTRSPYGEERWRGRMRGKPPTPPPRESSASPVNSLPRGTPAHHMDRQRHNQSVPLPMHHRQFDEDFDVNSLFNFSHDPRQQSTTLERGGRSLSRGARIQDAYYASQQDLSANNRFNSGQERVAAAIYRAETAHRDMYASGTINRAETPGRYFPENSAVLERSSTPSFPVSRATPLPFHPLLYNNGERGGSGHAAGGGGGGHNGYSTMNNRSASPRLFGGSSTLSRRSSVNSVDILSEILILQTSYLSCSYILLYLWNFYSLAFASNFKTMSDTATTSTTVVIHLKRSNHDDASASATTAQLQQRSRYCDVSLASSEESSDLSDAEEKDDLIRRTITSSSKDTMEEGDDDDEEEFDDVVMEEDVGGGTDANEQFSRVIQRQISGAGGGILKKSNGKDTSEIIHHHPLFVKDTSKYWYKPTISREQAINMLRDKPPGTFVVRDSNSFPGAFGLALKVSTPPPGVNPGDGSELVRHFLIEPSPKGVKLKGCNNEPVFGSLSALVYQHSITALALPTKLVLPDFDPAATPEHLSATQALLEQGAACNVVYVGSVDVESLTGNECVKRSIATCSQRAINGDSRAVSVHFKVSSQGVTLTDNTRKVFFRRHFNVQSVIFAGMDPIERRFENTRALGFHDGCIAQARLFAFVARIPSSSENACHVFAELEPEQPGSAVVNFINKVMLAQKNRS | not soluble
MSLRMQDIERKVIEWLDQHSAKAIRLLKRLIGEKSTLGSEFNAQAVVLEKLRQFHMDIDVWEPSIKQLKQHPYFKSNRSDFHESPNIVAKKTGAGGGRSLILNGHIDVVPEGSVKDWKYEPYQAVEENGKIYGRGSTDMKGGNTALLFALEALHACDVKLKGDVLFQSVVDEECGGAGTLSAIMRGYRADGALIPEPTNMKLFIKQQGSMWFRITVKGLSAHGGTRYEGVSAIEKSMHVITAIQELEKVRNARISDPLYDNIPIPVPVNIGTISGGAWPSSVADRVVIEGRCGIAPHEKPEAVKLELENWLKDLEYHDEWFKRHPVQVEWFGAQWLPNDLPDDHPLISVLQSAYQKMKQTEPIIEASPWGTDGGLLYHAGDTPVIVFGPGETKTAHQANEYIEVEAMIESAKIIALFVMDWCGLHTDGEGHHHHHH | soluble
MGSDKIHHHHHHMTRADYLNQLEQALFQLHPSARQEALDYFNEYFDEKDNDEEAIIELGTPDEAAKEIIANLPEDALIPEKDQASPHSSKPFDFNFDFDFQFDWENFFNNFKHSAYQARERIKLTSKIEELPEFSNLQISLEDQALSVQSYEGEAVLLHNPVSEDGSYQAFDYQLVQDSLYISSKPTPNHLYFSNNQISSAILKIPKKLLPLTNLNLKTADSSLTIVDVQVCEQMVVNAKDSSISMTKVSCPSSALQLEDSTLTISDGQMSELKLEASDAVITLSSMSLSDARITLEDCVWKLKDFVLEKSLNCQAEDSVLTYKPSTDISLDIWEEDSSLKLPKDKAFTMMKEGDITHLSYKQENSPAQLVIHCQDCQLSVG | not soluble
MGSDKIHHHHHHEEMEKGFDPKRYARELWFKLQDMMNEGLGYDAVEVLNTLDENPELAHQKFAKVVGVSNYRYYIIQGVGEIVEIKDDGILVKVRENRKVPDLFLSNHIFGNGIVNATGIAKMEDFDRIIDFNLTATELNKIVKEEVVNSFLKQLSKGAGSVGSLVRFIAVFTLLKDEEIKYPIEAIPLYLEIQGGF | soluble
MLIFGFIGLFFLNIFSLHAQGIVTNKDAQEEFKWALNSYNNGIYDDALLSFKKILSFDPNNLDYHFWTGNVYYRLGYVEEALMEWRNLKDQGYKVPYLRHLISTIEQRRGIFSNYELNFKKLVKVASLDNSIYKRPHGYQITSLRADKYGGYYAANFVGNEILYFDVNNNVNALVKDGFSYLKSPYDVIEANNLLYVTLYSSDEIGVYDKVLGVKRKSIGNKGTKDGELLAPQYMAIDKRNYIYVSEWGNKRVSKFGLEGDFILHFGSRTSGYKGLLGPTGVTYLNENIYVADSLRNTIEVFDTSGNHLYSVFTSIEGIEGLSSDFVGNNVIVSSKDGVYKYSIAKKTITKILKADKMNSKISSSILDANNQMIVSDFNNAKVSVYKSDASLYDSLNVDVRRIIRLGGPKIYVELNVSSKSGLPVVGLKSENFSISNENYYIVNPKVAYNVNASKDINIAVVFDKSSYMKKYDTDQIVGLNALMELSKNKNFSFINATSVPIIDNIESLTNSIRNTSSLGPYSTDAVKTDVSLKLAGSGLMSKSSRRAVVYFSGGILNRKAFEKYSLDTIVSYYKNNDIRFYLILFGNDPINSKLQYLVNETGGAVIPFSSYEGVSKVYDLILEQKTGTYLLEYYYPGPQEPNKYFNLSVEANINQQTGRGEFAYFINLEHHHHHH | not soluble
